Consider 11 substances from the supplement of paper PMC5998384.

In data set [1] the test system is HeLa Kyoto. In words: solubility in G1/S (NP-40 vs SDS abundance) (log2 ratio); higher = more soluble. The note with it: cell cycle stage: G1/S.
For data set [2], the system named is HeLa Kyoto. The data set is described as follows: solubility change mitosis vs G1/S (difference of NP-40 vs SDS log2 ratios) (log2 ratio difference); higher = more soluble in mitosis.
Data set [3] relates to HeLa Kyoto. In words: melting temperature (median over replicates), in situ; higher = more thermally stable.
Data set [4] deals with HeLa Kyoto. The data set is described as follows: thermal stability score vs G1/S (z-score of summed log2 fold changes over temperatures); higher = more thermally stable than in G1/S.
[5] abbreviates: cell cycle stage: early G1 (4.5 h after nocodazole release).
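For melting temperature (median over replicates), in situ in this document: HeLa Kyoto cells synchronized by double thymidine or nocodazole block, proteins quantified by TMT10plex mass spectrometry, three independent biological replicates.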
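For solubility change mitosis vs G1/S (difference of NP-40 vs SDS log2 ratios) in this document: synchronized HeLa Kyoto cells (double thymidine block for G1/S, nocodazole release for mitosis), protein amounts in NP-40 versus SDS lysates quantified by mass spectrometry, three biological replicates.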
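For solubility in G1/S (NP-40 vs SDS abundance) in this document: HeLa Kyoto cells arrested at G1/S by double thymidine block, proteins quantified by TMT10plex mass spectrometry in mild NP-40 versus SDS extracts, three biological replicates.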
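For thermal stability score vs G1/S (z-score of summed log2 fold changes over temperatures) in this document: synchronized HeLa Kyoto cells, proteins quantified by TMT10plex mass spectrometry, three biological replicates, mitosis taken 0.5 h after nocodazole release, G1/S directly after double thymidine block.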

Sequence of PPP2R5E (chain, as listed by the source): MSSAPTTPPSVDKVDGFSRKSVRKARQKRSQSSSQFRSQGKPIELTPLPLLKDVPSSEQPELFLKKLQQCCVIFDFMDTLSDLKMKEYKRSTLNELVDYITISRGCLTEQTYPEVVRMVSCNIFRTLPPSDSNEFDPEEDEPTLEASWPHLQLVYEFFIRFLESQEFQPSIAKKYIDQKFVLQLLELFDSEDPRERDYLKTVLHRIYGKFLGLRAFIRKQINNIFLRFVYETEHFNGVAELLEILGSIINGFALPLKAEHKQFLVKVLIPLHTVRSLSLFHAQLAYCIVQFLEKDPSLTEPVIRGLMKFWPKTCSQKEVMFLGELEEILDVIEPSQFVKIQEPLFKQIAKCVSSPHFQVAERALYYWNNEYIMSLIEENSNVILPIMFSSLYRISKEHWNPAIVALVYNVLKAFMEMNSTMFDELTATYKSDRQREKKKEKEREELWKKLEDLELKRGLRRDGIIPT
Sequence of PPP2R5D (chain, as listed by the source): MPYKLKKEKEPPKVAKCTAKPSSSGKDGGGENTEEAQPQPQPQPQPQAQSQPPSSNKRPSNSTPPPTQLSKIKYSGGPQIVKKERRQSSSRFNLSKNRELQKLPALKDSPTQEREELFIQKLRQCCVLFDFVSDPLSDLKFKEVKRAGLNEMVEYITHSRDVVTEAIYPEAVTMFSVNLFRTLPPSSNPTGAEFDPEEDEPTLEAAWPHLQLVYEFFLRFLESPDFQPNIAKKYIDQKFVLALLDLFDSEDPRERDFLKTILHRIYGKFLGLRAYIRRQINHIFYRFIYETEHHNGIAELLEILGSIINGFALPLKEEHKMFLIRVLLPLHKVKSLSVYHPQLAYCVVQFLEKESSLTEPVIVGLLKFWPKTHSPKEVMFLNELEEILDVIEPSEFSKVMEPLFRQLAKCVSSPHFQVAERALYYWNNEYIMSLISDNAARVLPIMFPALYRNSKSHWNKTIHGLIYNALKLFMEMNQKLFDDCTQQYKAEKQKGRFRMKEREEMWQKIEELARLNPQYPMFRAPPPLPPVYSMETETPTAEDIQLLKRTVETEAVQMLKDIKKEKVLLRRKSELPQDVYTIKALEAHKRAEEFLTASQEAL
Sequence of OCRL (chain, as listed by the source): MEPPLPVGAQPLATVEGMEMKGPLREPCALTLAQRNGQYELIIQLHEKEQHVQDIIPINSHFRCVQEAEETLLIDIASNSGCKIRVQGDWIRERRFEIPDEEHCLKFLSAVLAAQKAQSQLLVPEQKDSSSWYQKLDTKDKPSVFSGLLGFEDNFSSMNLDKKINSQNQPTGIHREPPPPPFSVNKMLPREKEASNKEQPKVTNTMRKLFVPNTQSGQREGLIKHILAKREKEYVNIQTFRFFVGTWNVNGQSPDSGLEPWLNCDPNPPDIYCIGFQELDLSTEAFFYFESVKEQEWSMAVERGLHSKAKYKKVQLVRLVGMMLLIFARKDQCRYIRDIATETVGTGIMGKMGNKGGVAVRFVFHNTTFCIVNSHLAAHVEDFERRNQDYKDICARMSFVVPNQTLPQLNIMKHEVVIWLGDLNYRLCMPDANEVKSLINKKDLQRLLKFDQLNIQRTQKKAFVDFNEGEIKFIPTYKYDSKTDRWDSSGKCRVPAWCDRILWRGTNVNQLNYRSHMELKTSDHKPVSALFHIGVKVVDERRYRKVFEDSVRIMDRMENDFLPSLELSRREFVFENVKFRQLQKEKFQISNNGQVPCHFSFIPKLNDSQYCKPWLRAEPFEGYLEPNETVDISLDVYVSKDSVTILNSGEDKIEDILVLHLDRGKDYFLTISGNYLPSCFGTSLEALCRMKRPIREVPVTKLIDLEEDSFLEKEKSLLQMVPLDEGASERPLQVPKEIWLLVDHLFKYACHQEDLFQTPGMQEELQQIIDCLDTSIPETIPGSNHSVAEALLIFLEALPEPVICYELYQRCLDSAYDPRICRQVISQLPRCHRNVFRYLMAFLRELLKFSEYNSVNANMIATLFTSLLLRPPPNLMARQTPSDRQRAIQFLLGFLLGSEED

Consider NUP98, for which, in data set [1], the “solubility in G1/S (log2)” value was -0.162. Further, the “solubility change mitosis (log2)” value in data set [2] was 0.26. Also, the melting temperature in data set [3] (cell cycle stage: G1/S) was found to be 48.4 °C; in data set [3] (cell cycle stage: mitosis), 48.6 °C. Also, the results for the thermal stability score in data set [4] (setting [5]) and in data set [4] (cell cycle stage: mitosis) were -1.52 and -1.57, respectively.

Take NUP188: the “solubility in G1/S (log2)” value in data set [1] was -0.299. Besides, the “solubility change mitosis (log2)” value in data set [2] was -0.108. Moreover, the melting temperature in data set [3] (cell cycle stage: G1/S) came out at 51 °C; in data set [3] (cell cycle stage: mitosis), 49 °C. Moreover, the thermal stability score is -2.04 in data set [4] (setting [5]) and -2.93 in data set [4] (cell cycle stage: mitosis).

As for OCRL, the “solubility in G1/S (log2)” value in data set [1] was -0.137. Besides, the “solubility change mitosis (log2)” value in data set [2] was -0.122. Moreover, the results for the melting temperature in data set [3] (cell cycle stage: G1/S) and in data set [3] (cell cycle stage: mitosis) were 51.4 °C and 51.8 °C, respectively. Also, the thermal stability score in data set [4] (setting [5]) is -0.419; in data set [4] (cell cycle stage: mitosis), -0.472.

For the substance OLA1, in data set [1], the “solubility in G1/S (log2)” value turned out to be 0.346. Moreover, the “solubility change mitosis (log2)” value in data set [2] is -0.109. The melting temperature was determined as 51.3 °C in data set [3] (cell cycle stage: G1/S) and 51.2 °C in data set [3] (cell cycle stage: mitosis). The thermal stability score in data set [4] (setting [5]) is 1.23; in data set [4] (cell cycle stage: mitosis), 0.644.

Turning to PIEZO1, the “solubility in G1/S (log2)” value in data set [1] is -0.227. Besides, the “solubility change mitosis (log2)” value in data set [2] was -0.0922. Also, the melting temperature in data set [3] (cell cycle stage: G1/S) was determined as 57.1 °C; in data set [3] (cell cycle stage: mitosis), 56.5 °C. The thermal stability score is -1.8 in data set [4] (setting [5]) and -2.23 in data set [4] (cell cycle stage: mitosis).

For PIK3C2B, in data set [1], the “solubility in G1/S (log2)” value was -0.164. Moreover, the “solubility change mitosis (log2)” value in data set [2] was -0.142. The melting temperature amounted to 50.1 °C in data set [3] (cell cycle stage: G1/S) and 49.7 °C in data set [3] (cell cycle stage: mitosis). Also, the thermal stability score was -0.0552 in data set [4] (setting [5]) and -0.413 in data set [4] (cell cycle stage: mitosis).

Take PKN1: the “solubility in G1/S (log2)” value in data set [1] is 0.0374. In addition, in data set [2], the “solubility change mitosis (log2)” value is -0.112. Besides, the melting temperature amounted to 49.9 °C in data set [3] (cell cycle stage: G1/S) and 50.6 °C in data set [3] (cell cycle stage: mitosis). Besides, the thermal stability score in data set [4] (setting [5]) turned out to be 0.284; in data set [4] (cell cycle stage: mitosis), 0.47.

Take PLXNA1: the “solubility in G1/S (log2)” value in data set [1] was -0.0498. Further, the “solubility change mitosis (log2)” value in data set [2] was found to be 0.0188. The melting temperature was 53.8 °C in data set [3] (cell cycle stage: G1/S) and 52.5 °C in data set [3] (cell cycle stage: mitosis). The values for the thermal stability score in data set [4] (setting [5]) and in data set [4] (cell cycle stage: mitosis) were -1.69 and -1.65, respectively.

Consider PPP2R5D, for which the “solubility in G1/S (log2)” value in data set [1] is -0.0693. For the same substance, the “solubility change mitosis (log2)” value in data set [2] came out at 0.0185. Besides, the melting temperature stood at 48.2 °C in data set [3] (cell cycle stage: G1/S) and 48.4 °C in data set [3] (cell cycle stage: mitosis). Moreover, the thermal stability score in data set [4] (setting [5]) turned out to be 1.54; in data set [4] (cell cycle stage: mitosis) it was 3.42.

As to PPP2R5E, the “solubility in G1/S (log2)” value in data set [1] was -0.065. For the same substance, in data set [2], the “solubility change mitosis (log2)” value is -0.171. In addition, the figures for the melting temperature in data set [3] (cell cycle stage: G1/S) and in data set [3] (cell cycle stage: mitosis) were 49.9 °C and 49.7 °C, respectively. For the same substance, the results for the thermal stability score in data set [4] (setting [5]) and in data set [4] (cell cycle stage: mitosis) were 0.446 and 0.409, respectively.

In the case of PROSC, the “solubility in G1/S (log2)” value in data set [1] is 0.225. The “solubility change mitosis (log2)” value in data set [2] is -0.0262. The melting temperature in data set [3] (cell cycle stage: G1/S) was 48.8 °C; in data set [3] (cell cycle stage: mitosis), 49.7 °C. Also, the thermal stability score in data set [4] (setting [5]) was found to be 1.09; in data set [4] (cell cycle stage: mitosis), 0.951.
